According to PMC2879519:

Legend:
Assay in all cases: fluorescence quenching titration
[1] = molecular target: SMC2 hinge long (mSMC2h of mSMC2h4h-l);SMC4 hinge long (mSMC4h of mSMC2h4h-l) (mouse;mouse) (UniProt Q8CG48+Q8CG47)
[2] = molecular target: SMC2 hinge long (mSMC2h of mSMC2h4h-l);SMC4 hinge long (mSMC4h of mSMC2h4h-l) (mouse;mouse, UniProt Q8CG48;Q8CG47 492-680;581-766, |)
[3] = molecular target: SMC2 hinge long K613E;SMC4 hinge long K698E (mouse;mouse, UniProt Q8CG48;Q8CG47 492-680;581-766, K613E|K698E)
[4] = molecular target: SMC2 hinge long K566E;SMC4 hinge long K657E (mouse;mouse, UniProt Q8CG48;Q8CG47 492-680;581-766, K566E|K657E)
[5] = molecular target: SMC2 hinge long K566E;SMC4 hinge long (mSMC4h of mSMC2h4h-l) (mouse;mouse, UniProt Q8CG48;Q8CG47 492-680;581-766, K566E|)
SMC2 hinge long K566E;SMC4 hinge long (mSMC4h of mSMC2h4h-l), sequence (Q8CG48 492-680 K566E, chain 1 of 2): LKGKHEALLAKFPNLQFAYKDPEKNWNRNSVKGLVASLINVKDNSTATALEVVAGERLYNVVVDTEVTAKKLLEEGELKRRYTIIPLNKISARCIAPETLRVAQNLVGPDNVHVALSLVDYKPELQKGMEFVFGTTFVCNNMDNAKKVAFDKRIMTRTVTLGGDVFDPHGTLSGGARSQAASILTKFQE
SMC2 hinge long K566E;SMC4 hinge long (mSMC4h of mSMC2h4h-l), sequence (Q8CG47 581-766, chain 2 of 2): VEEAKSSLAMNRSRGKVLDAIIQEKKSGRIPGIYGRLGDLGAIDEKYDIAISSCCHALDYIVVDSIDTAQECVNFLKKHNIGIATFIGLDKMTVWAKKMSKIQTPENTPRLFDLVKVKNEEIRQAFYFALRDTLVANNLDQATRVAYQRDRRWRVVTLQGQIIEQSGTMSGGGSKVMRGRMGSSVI

SMC2 hinge long (mSMC2h of mSMC2h4h-l);SMC4 hinge long (mSMC4h of mSMC2h4h-l) (mouse;mouse), sequence (Q8CG48 492-680, chain 1 of 2): as the sequence (Q8CG48 492-680 K566E, chain 1 of 2) above, with E75K counted along it
SMC2 hinge long (mSMC2h of mSMC2h4h-l);SMC4 hinge long (mSMC4h of mSMC2h4h-l) (mouse;mouse), sequence (Q8CG47 581-766, chain 2 of 2): as the sequence (Q8CG47 581-766, chain 2 of 2) above
SMC2 hinge long (mSMC2h of mSMC2h4h-l);SMC4 hinge long (mSMC4h of mSMC2h4h-l), sequence (Q8CG48 492-680, chain 1 of 2): as the sequence (Q8CG48 492-680 K566E, chain 1 of 2) above, with E75K counted along it
SMC2 hinge long (mSMC2h of mSMC2h4h-l);SMC4 hinge long (mSMC4h of mSMC2h4h-l), sequence (Q8CG47 581-766, chain 2 of 2): as the sequence (Q8CG47 581-766, chain 2 of 2) above
SMC2 hinge long K613E;SMC4 hinge long K698E, sequence (Q8CG48 492-680 K613E, chain 1 of 2): as the sequence (Q8CG48 492-680 K566E, chain 1 of 2) above, with E75K, K122E counted along it
SMC2 hinge long K613E;SMC4 hinge long K698E, sequence (Q8CG47 581-766 K698E, chain 2 of 2): as the sequence (Q8CG47 581-766, chain 2 of 2) above, with K118E counted along it
SMC2 hinge long K566E;SMC4 hinge long K657E, sequence (Q8CG48 492-680 K566E, chain 1 of 2): as the sequence (Q8CG48 492-680 K566E, chain 1 of 2) above
SMC2 hinge long K566E;SMC4 hinge long K657E, sequence (Q8CG47 581-766 K657E, chain 2 of 2): as the sequence (Q8CG47 581-766, chain 2 of 2) above, with K77E counted along it

CATCCTGTCCGCTGC / CCGGAGAGCATCTCG / GCAGCGGACAGGATGTTTTTTTTTTTTTTTCGAGATGCTCTCCGG [45-mer ds-ss-dsDNA]
Kd [1]: 660 nM

CATCCTGTCCGCTGC / TTTTTTTTTTTTTTTGCAGCGGACAGGATG [30-mer ds-ssDNA-5']
Kd [1]: 1770 nM

CATCCTGTCCGCTGC / GCAGCGGACAGGATGTTTTTTTTTTTTTTT [30-mer ds-ssDNA-3']
Kd [1]: 1550 nM

TTTTTTTTTTTTTTT (ssDNA) [15-mer ssDNA]
Kd [2]: 3210 ± 140 nM

TTTTTTTTTTTTTTTTTTTTTTTTTTTTTT (ssDNA) [30-mer ssDNA]
Kd [3]: 2950 ± 300 nM | Kd [4]: 3.26 ± 0.58 µM | Kd [2]: 450 ± 40 nM | Kd [5]: 1800 ± 80 nM
